Source: paper PMC4715492

Molecular target: 2xMyc‐PAK6 (p21‐activated kinase 6) (human) (UniProt Q9NQU5)
Experiment: co-IP; lysates of HEK293T cells co-transfected with Flag-LRRK2 and Myc-PAK6 or Myc-14-3-3; immunoprecipitation with anti-Flag or with anti-Myc; washes in lysis buffer (50 mM Tris pH 7.5, 1% Triton X-100) with 0.25 M NaCl; immunoblot

Sequence of UniProt Q9NQU5 (Q9NQU5 whole entry): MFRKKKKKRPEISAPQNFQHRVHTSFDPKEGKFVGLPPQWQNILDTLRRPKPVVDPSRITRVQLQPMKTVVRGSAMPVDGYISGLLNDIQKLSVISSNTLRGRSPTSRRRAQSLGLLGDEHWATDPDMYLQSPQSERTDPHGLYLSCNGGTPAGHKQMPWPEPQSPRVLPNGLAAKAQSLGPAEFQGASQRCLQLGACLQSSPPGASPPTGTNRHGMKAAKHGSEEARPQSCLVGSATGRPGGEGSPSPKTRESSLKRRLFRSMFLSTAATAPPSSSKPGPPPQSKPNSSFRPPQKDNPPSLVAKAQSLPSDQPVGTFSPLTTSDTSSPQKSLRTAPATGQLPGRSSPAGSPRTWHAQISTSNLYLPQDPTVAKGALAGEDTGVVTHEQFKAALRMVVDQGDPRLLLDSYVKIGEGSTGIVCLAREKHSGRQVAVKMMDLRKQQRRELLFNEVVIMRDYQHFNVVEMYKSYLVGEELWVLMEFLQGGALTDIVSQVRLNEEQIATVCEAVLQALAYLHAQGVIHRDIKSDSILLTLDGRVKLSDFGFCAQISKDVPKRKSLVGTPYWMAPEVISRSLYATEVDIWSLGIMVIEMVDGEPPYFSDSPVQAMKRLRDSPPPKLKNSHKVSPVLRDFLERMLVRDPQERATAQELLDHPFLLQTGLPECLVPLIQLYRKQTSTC

fold of LRRK2 bound, against 2xMyc‐14‐3‐3 zeta: 3.5 fold
Substance: 3xFlag‐LRRK2 wild type, Q5S007 1-2527
